Results published in the supplement of paper PMC9112550, “Optimization of the antimicrobial peptide Bac7 by deep mutational scanning” (BMC Biology, 2022).

Test system: Escherichia coli TOP10
Test: shrunken log2 fold change of peptide-encoding DNA abundance (4.5 h post-induction vs induction); higher = less antimicrobial activity (less host growth inhibition)
Conditions: time post-induction: 4.5 h; library: site-saturation at positions 5, 18, 19, 20
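Note: peptides expressed intracellularly from a pBAD plasmid library in pooled LB shake-flask culture, induced with 0.3% L-arabinose, DNA abundance read by NGS, three biological replicates, DESeq2 with apeglm shrinkage.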

Going from RRIRGRPPRLPRPRPRPFSRPRP to RRIRYRPPRLPRPRPRPTVAPRP, the “shrunken log2 fold change” value falls from 0.612 to 0.0691.

Going from RRIRLRPPRLPRPRPRPLHCPRP to RRIRDRPPRLPRPRPRPSNAPRP, the “shrunken log2 fold change” value falls from 0.118 to -0.184.

RRIRGRPPRLPRPRPRPFLPPRP and RRIRNRPPRLPRPRPRPMCPPRP are within 0.2 log units of each other in “shrunken log2 fold change” value: -0.148 for the first, -0.0135 for the second.

RRIRPRPPRLPRPRPRPQQYPRP and RRIRQRPPRLPRPRPRPESKPRP are within 0.2 log units of each other in “shrunken log2 fold change” value: -0.108 for the first, 0.0494 for the second.

Going from RRIRERPPRLPRPRPRPTSCPRP to RRIRSRPPRLPRPRPRPFVNPRP, the “shrunken log2 fold change” value falls from -0.178 to -0.99.

Compared with RRIRTRPPRLPRPRPRPWNSPRP, RRIRPRPPRLPRPRPRPPFWPRP is higher in “shrunken log2 fold change” value: -0.0351 for the first, 0.767 for the second.

RRIRWRPPRLPRPRPRPCLNPRP and RRIRERPPRLPRPRPRPVTVPRP are within 0.2 log units of each other in “shrunken log2 fold change” value: 0.0137 for the first, -0.0984 for the second.

Compared with RRIRARPPRLPRPRPRPYMCPRP, RRIRIRPPRLPRPRPRPWGYPRP is higher in “shrunken log2 fold change” value: -0.773 for the first, -0.156 for the second.

Going from RRIRHRPPRLPRPRPRPLKYPRP to RRIRKRPPRLPRPRPRPRVLPRP, the “shrunken log2 fold change” value rises from -0.345 to 0.498.

Going from RRIRSRPPRLPRPRPRPYMDPRP to RRIRGRPPRLPRPRPRPALKPRP, the “shrunken log2 fold change” value rises from -0.326 to 0.504.

Compared with RRIRLRPPRLPRPRPRPMPMPRP, RRIRNRPPRLPRPRPRPPYEPRP is lower in “shrunken log2 fold change” value: 0.0663 for the first, -0.18 for the second.

First: RRIRFRPPRLPRPRPRPSWFPRP
Second: RRIRDRPPRLPRPRPRPYTYPRP
The “shrunken log2 fold change” value of the first is lower: -0.403 for the first, 0.0218 for the second.

RRIRRRPPRLPRPRPRPYDVPRP and RRIRIRPPRLPRPRPRPHKFPRP are within 0.2 log units of each other in “shrunken log2 fold change” value: -0.0964 for the first, -0.291 for the second.

RRIRKRPPRLPRPRPRPLENPRP and RRIRRRPPRLPRPRPRPILWPRP are within 0.2 log units of each other in “shrunken log2 fold change” value: 0.228 for the first, 0.0428 for the second.

First: RRIRFRPPRLPRPRPRPWSKPRP
Second: RRIRVRPPRLPRPRPRPTALPRP
The “shrunken log2 fold change” value of the first is lower: -0.079 for the first, 0.388 for the second.

RRIRARPPRLPRPRPRPWVEPRP and RRIRCRPPRLPRPRPRPHVFPRP are within 0.2 log units of each other in “shrunken log2 fold change” value: 0.151 for the first, 0.161 for the second.

Compared with RRIRARPPRLPRPRPRPFAFPRP, RRIRGRPPRLPRPRPRPKTLPRP is higher in “shrunken log2 fold change” value: 0.552 for the first, 0.872 for the second.

First: RRIRWRPPRLPRPRPRPYSCPRP
Second: RRIRTRPPRLPRPRPRPWQAPRP
The “shrunken log2 fold change” value of the first is lower: -0.705 for the first, 0.177 for the second.

Going from RRIRRRPPRLPRPRPRPENKPRP to RRIRKRPPRLPRPRPRPMLFPRP, the “shrunken log2 fold change” value rises from -0.0891 to 0.315.

Compared with RRIRNRPPRLPRPRPRPGRRPRP, RRIRGRPPRLPRPRPRPQRYPRP is lower in “shrunken log2 fold change” value: 0.79 for the first, -0.00818 for the second.

Going from RRIRSRPPRLPRPRPRPYMPPRP to RRIRVRPPRLPRPRPRPMWAPRP, the “shrunken log2 fold change” value rises from -1.04 to 0.0354.

Going from RRIRFRPPRLPRPRPRPKDFPRP to RRIRFRPPRLPRPRPRPRAWPRP, the “shrunken log2 fold change” value rises from -0.158 to 0.409.

First: RRIRRRPPRLPRPRPRPYDLPRP
Second: RRIRLRPPRLPRPRPRPGWTPRP
The “shrunken log2 fold change” value of the first is lower: -0.546 for the first, 0.208 for the second.

RRIRERPPRLPRPRPRPCSAPRP and RRIRQRPPRLPRPRPRPVLIPRP are within 0.2 log units of each other in “shrunken log2 fold change” value: -0.0881 for the first, 0.0422 for the second.

Going from RRIRCRPPRLPRPRPRPEVSPRP to RRIRHRPPRLPRPRPRPCWSPRP, the “shrunken log2 fold change” value falls from 0.282 to -0.166.

Going from RRIRKRPPRLPRPRPRPHNKPRP to RRIRRRPPRLPRPRPRPKKMPRP, the “shrunken log2 fold change” value rises from -0.0934 to 0.318.

First: RRIRWRPPRLPRPRPRPQDTPRP
Second: RRIRVRPPRLPRPRPRPSYTPRP
The “shrunken log2 fold change” value of the first is higher: -0.0161 for the first, -0.27 for the second.

Compared with RRIRQRPPRLPRPRPRPNHNPRP, RRIRHRPPRLPRPRPRPTLTPRP is higher in “shrunken log2 fold change” value: -0.893 for the first, -0.188 for the second.

Compared with RRIRGRPPRLPRPRPRPIPWPRP, RRIRNRPPRLPRPRPRPTIMPRP is lower in “shrunken log2 fold change” value: 0.361 for the first, -0.0883 for the second.

First: RRIRPRPPRLPRPRPRPKHNPRP
Second: RRIRWRPPRLPRPRPRPPWIPRP
The “shrunken log2 fold change” value of the first is lower: -0.303 for the first, 1.44 for the second.

Going from RRIRMRPPRLPRPRPRPDWVPRP to RRIRGRPPRLPRPRPRPCVSPRP, the “shrunken log2 fold change” value rises from 0.0143 to 0.265.

Going from RRIRHRPPRLPRPRPRPYHCPRP to RRIRRRPPRLPRPRPRPEKVPRP, the “shrunken log2 fold change” value rises from -0.316 to 0.448.

RRIRDRPPRLPRPRPRPNMWPRP and RRIRYRPPRLPRPRPRPHKTPRP are within 0.2 log units of each other in “shrunken log2 fold change” value: -0.152 for the first, -0.0572 for the second.

Going from RRIRIRPPRLPRPRPRPNCEPRP to RRIRERPPRLPRPRPRPAPVPRP, the “shrunken log2 fold change” value rises from -0.525 to 0.055.

Compared with RRIRERPPRLPRPRPRPEHFPRP, RRIRKRPPRLPRPRPRPRCEPRP is higher in “shrunken log2 fold change” value: -0.00973 for the first, 0.568 for the second.

RRIRPRPPRLPRPRPRPSKHPRP and RRIRQRPPRLPRPRPRPLHDPRP are within 0.2 log units of each other in “shrunken log2 fold change” value: -0.441 for the first, -0.346 for the second.

Going from RRIRYRPPRLPRPRPRPHAWPRP to RRIRVRPPRLPRPRPRPHMWPRP, the “shrunken log2 fold change” value falls from -0.129 to -0.49.

With RRIRDRPPRLPRPRPRPSTWPRP the “shrunken log2 fold change” value was -0.0672.
